This is an account of results in the supplement of paper PMC10567573.

To fix the notation:
B1: PLK2 (parent)
chain: MELLRTITYQPAASTKMCEQALGK
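Note: lentivirally expressed fusions sorted by FACS into six bins by GFP to DsRed ratio, PSI derived from sequencing read proportions per bin multiplied by bin number.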

Variants of B1 are the subject of the data set. As to the kind of experiment: protein stability index of a GFP-peptide fusion (GPS, HEK-293T) (PSI 1-6); higher = more stable. Particulars: c terminus: a fixed tail appended.
With MELLRTITKQPAASTKMCEQALGK, the protein stability index is 1.64. Regarding MELLRTITCQPAASTKMCEQALGK, the protein stability index came to 2.38. To MELLRTITAQPAASTKMCEQALGK belongs 2.52; to MELLRTITMQPAASTKMCEQALGK, 1.89; to MELLRTITQQPAASTKMCEQALGK, 2.01.

For MELLRTITDQPAASTKMCEQALGK, the protein stability index stood at 2. The figure for MELLRTITPQPAASTKMCEQALGK is 2.04.

Regarding MELLRTITGQPAASTKMCEQALGK, the protein stability index was 2.46. To MELLRTITTQPAASTKMCEQALGK belongs 2.29. To MELLRTITVQPAASTKMCEQALGK belongs 2.11; to MELLRTITWQPAASTKMCEQALGK, 1.45; to MELLRTITFQPAASTKMCEQALGK, 2.05. To MELLRTITHQPAASTKMCEQALGK belongs 2.1; to MELLRTITRQPAASTKMCEQALGK, 2.19.

With MELLRTITIQPAASTKMCEQALGK, the protein stability index was found to be 2.34.

Turning to MELLRTITSQPAASTKMCEQALGK, the protein stability index was 3.53. To MELLRTITEQPAASTKMCEQALGK belongs 2.05; to MELLRTITNQPAASTKMCEQALGK, 2.16; to MELLRTITLQPAASTKMCEQALGK, 1.73. To MEDLRTITYQPAASTKMCEQALGK belongs 2.46.

As for MEELRTITYQPAASTKMCEQALGK, the protein stability index was 2.56. The figure for MESLRTITYQPAASTKMCEQALGK is 2.21; for MEVLRTITYQPAASTKMCEQALGK it is 2.49. To MEKLRTITYQPAASTKMCEQALGK belongs 1.37. To MEPLRTITYQPAASTKMCEQALGK belongs 3.11; to MEFLRTITYQPAASTKMCEQALGK, 2.56; to MERLRTITYQPAASTKMCEQALGK, 2.24.

MEALRTITYQPAASTKMCEQALGK: the protein stability index is 2.82. To MEWLRTITYQPAASTKMCEQALGK belongs 2.48; to MEMLRTITYQPAASTKMCEQALGK, 3.04; to MENLRTITYQPAASTKMCEQALGK, 1.88. To MEGLRTITYQPAASTKMCEQALGK belongs 1.89.

On to METLRTITYQPAASTKMCEQALGK, for which the protein stability index turned out to be 1.94. To MEHLRTITYQPAASTKMCEQALGK belongs 1.62; to MEQLRTITYQPAASTKMCEQALGK, 2.08; to MEILRTITYQPAASTKMCEQALGK, 2.63.

With MEYLRTITYQPAASTKMCEQALGK, the protein stability index stood at 2.07. With MECLRTITYQPAASTKMCEQALGK, the protein stability index amounted to 2.17. The figure for MELLRYITYQPAASTKMCEQALGK is 1.6; for MELLRGITYQPAASTKMCEQALGK it is 3.05; for MELLRWITYQPAASTKMCEQALGK it is 1.99.

As for MELLRHITYQPAASTKMCEQALGK, the protein stability index is 2.2. To MELLRQITYQPAASTKMCEQALGK belongs 1.93; to MELLRIITYQPAASTKMCEQALGK, 2.65.

Take MELLRLITYQPAASTKMCEQALGK: the protein stability index was 1.69. To MELLRPITYQPAASTKMCEQALGK belongs 4.1; to MELLRSITYQPAASTKMCEQALGK, 1.64. In the case of MELLRRITYQPAASTKMCEQALGK, the protein stability index is 2.04. The figure for MELLRDITYQPAASTKMCEQALGK is 3.2; for MELLRVITYQPAASTKMCEQALGK it is 2.55. To MELLRNITYQPAASTKMCEQALGK belongs 2.81; to MELLRMITYQPAASTKMCEQALGK, 1.73. Turning to MELLRCITYQPAASTKMCEQALGK, the protein stability index came out at 1.92. To MELLREITYQPAASTKMCEQALGK belongs 3.17; to MELLRFITYQPAASTKMCEQALGK, 1.68. The figure for MELLRAITYQPAASTKMCEQALGK is 1.93. Take MELLRKITYQPAASTKMCEQALGK: the protein stability index was 2.19. To MELLRTITYGPAASTKMCEQALGK belongs 3.21. To MELLRTITYCPAASTKMCEQALGK belongs 1.28. To MELLRTITYHPAASTKMCEQALGK belongs 1.81; to MELLRTITYMPAASTKMCEQALGK, 1.99. Turning to MELLRTITYRPAASTKMCEQALGK, the protein stability index was determined as 2.97. To MELLRTITYNPAASTKMCEQALGK belongs 3.54.

As for MELLRTITYAPAASTKMCEQALGK, the protein stability index was 2.79.

As for MELLRTITYDPAASTKMCEQALGK, the protein stability index came out at 2.11. The figure for MELLRTITYVPAASTKMCEQALGK is 4.15; for MELLRTITYKPAASTKMCEQALGK it is 2.78; for MELLRTITYPPAASTKMCEQALGK it is 2.83. To MELLRTITYLPAASTKMCEQALGK belongs 2.49; to MELLRTITYIPAASTKMCEQALGK, 2.81; to MELLRTITYYPAASTKMCEQALGK, 3.24. On to MELLRTITYWPAASTKMCEQALGK, for which the protein stability index came to 2.6. As to MELLRTITYTPAASTKMCEQALGK, the protein stability index turned out to be 2.12. MELLRTITYEPAASTKMCEQALGK: the protein stability index is 2.5. The figure for MELLRTITYSPAASTKMCEQALGK is 2.54; for MELLRTATYQPAASTKMCEQALGK it is 2.34. As to MELLRTWTYQPAASTKMCEQALGK, the protein stability index was 2.27. To MELLRTRTYQPAASTKMCEQALGK belongs 3.09; to MELLRTMTYQPAASTKMCEQALGK, 2.85; to MELLRTQTYQPAASTKMCEQALGK, 2.79. For MELLRTTTYQPAASTKMCEQALGK, the protein stability index was 1.97. As to MELLRTCTYQPAASTKMCEQALGK, the protein stability index turned out to be 2.1. The figure for MELLRTKTYQPAASTKMCEQALGK is 3.24; for MELLRTGTYQPAASTKMCEQALGK it is 3.72; for MELLRTDTYQPAASTKMCEQALGK it is 4.13. To MELLRTLTYQPAASTKMCEQALGK belongs 2.03; to MELLRTYTYQPAASTKMCEQALGK, 2.6; to MELLRTHTYQPAASTKMCEQALGK, 2.8.

As for MELLRTNTYQPAASTKMCEQALGK, the protein stability index stood at 3.19. With MELLRTETYQPAASTKMCEQALGK, the protein stability index was determined as 2.89. The figure for MELLRTFTYQPAASTKMCEQALGK is 1.94. To MELLRTPTYQPAASTKMCEQALGK belongs 2.12. To MELLRTSTYQPAASTKMCEQALGK belongs 2.54; to MELLRTVTYQPAASTKMCEQALGK, 1.97.
